Article PMC2386976
pKd: −log10 of the molar value.

Test system: EIAV Rev (ERev), MBP-ERev fusion (Equine infectious anemia virus (EIAV))
Test: filter binding
Settings: Footprinting: 10 mM HEPES-KOH pH 7.5, 100 mM KCl, 1 mM MgCl2, 0.5 mM EDTA, complex formed 20 min on ice, probed 10 min at room temperature

## ERRE_RBR12 (ERRE, EIAV RRE-1, contains RBR-1 and RBR-2)
  pKd: 7.72
